Legend:
mAgrp promoter = test: NHR-promoter luciferase screen, mAgrp promoter; assay type: cell-based, mouse; settings: for Results of assays of transcription factor (+/- ligand) with mAgrp: Table 6d, luciferase activity relative to control (control = 1.00); for Luc. act., normalized to lacZ / Normalized Luc. act., normalized to control: mAgrp promoter, HR component with or without ligand; for Normalized Luc. act., normalized to control: relative to control
In short: (§1)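 CV-1 cells were co-transfected with 50 ng NHR (homodimer or NHR/RXR heterodimer), 100 ng promoter-luciferase construct and 50 ng LacZ. Luciferase was normalized to LacZ and to a no-NHR/no-ligand control.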

mPOMC promoter = test: NHR-promoter luciferase screen, mPOMC promoter; assay type: cell-based, mouse; settings: for Results of assays of transcription factor (+/- ligand) with mPOMC: Table 6d, luciferase activity relative to control (control = 1.00); for Luc. act., normalized to lacZ / Normalized Luc. act., normalized to control: mPOMC promoter, HR component with or without ligand; for Normalized Luc. act., normalized to control: relative to control
In short: as §1

hIRF7 promoter = test: NHR-promoter luciferase screen, hIRF7 promoter; assay type: cell-based, human; settings: for Normalized Luc. act., normalized to control / Luc. act., normalized to lacZ: IRF7 promoter reporter; for Normalized Luc. act., normalized to control: HR without or with its ligand, relative to control; for Luc. act., normalized to lacZ: hormone receptor (HR) without or with its ligand; for hIRF7 promoter reporter activity: transcription factor +/- ligand, control = 1.00
In short: as §1

mAdiponectin promoter = test: NHR-promoter luciferase screen, mAdiponectin promoter; assay type: cell-based, mouse; settings: for Luc. act., normalized to lacZ / Normalized Luc. act., normalized to control: Adiponectin, HR component without or with its ligand; for mAdiponectin promoter reporter activity: transcription factor +/- ligand, control = 1.00
In short: as §1

hMyoD promoter = test: NHR-promoter luciferase screen, hMyoD promoter; assay type: cell-based, human; settings: for Luc. act., normalized to lacZ / Normalized Luc. act., normalized to control: MyoD promoter reporter, co-transfected HR, without or with its ligand; for Normalized Luc. act., normalized to control: relative to control; for luciferase activity normalized to lacZ activity and to a control, hMyoD: hMyoD promoter-luciferase, CV-1 cells, NHR +/- ligand, control = 1.00
In short: as §1

Molecule	Results of assays of transcription factor (+/- ligand) with mAgrp (mAgrp promoter)	Luc. act., normalized to lacZ (mAgrp promoter)	Normalized Luc. act., normalized to control (mAgrp promoter)	Results of assays of transcription factor (+/- ligand) with mPOMC (mPOMC promoter)	Luc. act., normalized to lacZ (mPOMC promoter)	Normalized Luc. act., normalized to control (mPOMC promoter)	Normalized Luc. act., normalized to control (hIRF7 promoter)	Luc. act., normalized to lacZ (hIRF7 promoter)	hIRF7 promoter reporter activity (hIRF7 promoter)	Luc. act., normalized to lacZ (mAdiponectin promoter)	Normalized Luc. act., normalized to control (mAdiponectin promoter)	mAdiponectin promoter reporter activity (mAdiponectin promoter)	Luc. act., normalized to lacZ (hMyoD promoter)	Normalized Luc. act., normalized to control (hMyoD promoter)	luciferase activity normalized to lacZ activity and to a control, hMyoD (hMyoD promoter)
DAX-1: DAX1 (NR0B1), cDNA driver (protein, UniProt P51843 1-470, looked up) Nuclear receptor subfamily 0 …: MAGENHQWQGSILYNMLMSAKQTRAAPEAPETRLVDQCWGCSCGDEPGVGREGLLGGRNVALLYRCCFCGKDHPRQGSILYSMLTSAKQTYAAPKAPEATLGPCWGCSCGSDPGVGRAGLPGGRPVALLYRCCFCGEDHPRQGSILYSLLTSSKQTHVAPAAPEARPGGAWWDRSYFAQRPGGKEALPGGRATALLYRCCFCGEDHPQQGSTLYCVPTSTNQAQAAPEERPRAPWWDTSSGALRPVALKSPQVVCEAASAGLLKTLRFVKYLPCFQVLPLDQQLVLVRNCWASLLMLELAQDRLQFETVEVSEPSMLQKILTTRRRETGGNEPLPVPTLQHHLAPPAEARKVPSASQVQAIKCFLSKCWSLNISTKEYAYLKGTVLFNPDVPGLQCVKYIQGLQWGTQQILSEHTRMTHQGPHDRFIELNSTLFLLRFINANVIAELFFRPIIGTVSMDDMMLEMLCTKI	1.07	42.3	1.1	0.92	63.4	0.9	1.1	27.9	1.06	45.6	0.7	0.73	61.3	1.0	0.97
NR4a2: NR4a2 (NR4A2; NURR1), nuclear hormone receptor cDNA driver (protein, UniProt P43354 1-598, looked up) Nuclear receptor subfamily 4 …: MPCVQAQYGSSPQGASPASQSYSYHSSGEYSSDFLTPEFVKFSMDLTNTEITATTSLPSFSTFMDNYSTGYDVKPPCLYQMPLSGQQSSIKVEDIQMHNYQQHSHLPPQSEEMMPHSGSVYYKPSSPPTPTTPGFQVQHSPMWDDPGSLHNFHQNYVATTHMIEQRKTPVSRLSLFSFKQSPPGTPVSSCQMRFDGPLHVPMNPEPAGSHHVVDGQTFAVPNPIRKPASMGFPGLQIGHASQLLDTQVPSPPSRGSPSNEGLCAVCGDNAACQHYGVRTCEGCKGFFKRTVQKNAKYVCLANKNCPVDKRRRNRCQYCRFQKCLAVGMVKEVVRTDSLKGRRGRLPSKPKSPQEPSPPSPPVSLISALVRAHVDSNPAMTSLDYSRFQANPDYQMSGDDTQHIQQFYDLLTGSMEIIRGWAEKIPGFADLPKADQDLLFESAFLELFVLRLAYRSNPVEGKLIFCNGVVLHRLQCVRGFGEWIDSIVEFSSNLQNMNIDISAFSCIAALAMVTERHGLKEPKRVEELQNKIVNCLKDHVTFNNGGLNRPNYLSKLLGKLPELRTLCTQGLQRIFYLKLEDLVPPPAIIDKLFLDTLPF	0.88	35.1	0.9	1.05	72.2	1.0	0.9	23.2	0.88	35.8	0.6	0.57	51.9	0.8	0.82
GCNF: Germ Cell Nuclear Factor (NR6A1, GCNF1), cDNA driver (protein, UniProt Q15406 1-480, looked up) Nuclear receptor subfamily 6 …: MERDEPPPSGGGGGGGSAGFLEPPAALPPPPRNGFCQDELAELDPGTISVSDDRAEQRTCLICGDRATGLHYGIISCEGCKGFFKRSICNKRVYRCSRDKNCVMSRKQRNRCQYCRLLKCLQMGMNRKAIREDGMPGGRNKSIGPVQISEEEIERIMSGQEFEEEANHWSNHGDSDHSSPGNRASESNQPSPGSTLSSSRSVELNGFMAFREQYMGMSVPPHYQYIPHLFSYSGHSPLLPQQARSLDPQSYSLIHQLLSAEDLEPLGTPMLIEDGYAVTQAELFALLCRLADELLFRQIAWIKKLPFFCELSIKDYTCLLSSTWQELILLSSLTVYSKQIFGELADVTAKYSPSDEELHRFSDEGMEVIERLIYLYHKFHQLKVSNEEYACMKAINFLNQDIRGLTSASQLEQLNKRYWYICQDFTEYKYTHQPNRFPDLMMCLPEIRYIAGKMVNVPLEQLPLLFKVVLHSCKTSVGKE	1.42	56.5	1.4	0.61	42.0	0.6	1.1	28.4	1.08	63.1	1.0	1.00	50.5	0.8	0.80
